What all share (assay): other fluorescence titration; microplate-based binding assay (HI-FI) with Alexa-488-labelled Sod1 and Ccs; 20 mM Tris pH 7.5, 150 mM NaCl, 1 mM TCEP; plates imaged on a Typhoon FLA 9500; quadruplicate; apparent dissociation constants
Test [1] addresses human Sod1 G85R/C146S, metal-free, disulfide reduced, labelled with Alexa-488 at C57 (human).
The target of test [2] is human Sod1 G93A/C146S, metal-free, disulfide reduced, labelled with Alexa-488 at C57 (human).
In test [3] the target is human Sod1 H80R/C146S, metal-free, disulfide reduced, labelled with Alexa-488 at C57 (human).
Test [4] deals with human Sod1 A4V/C146S, metal-free, disulfide reduced, labelled with Alexa-488 at C57 (human).

One substance from article PMC7179120 can be followed below.

“human copper chaperone for Sod1 (Ccs) (natural protein)”: the Kd worked out at 0.0355 µM in test [1], 0.0334 µM in test [2], 0.0676 µM in test [3] and 0.0421 µM in test [4].
